{
  "source": "the DeepSol protein solubility set",
  "data": [
    {"test": "soluble on expression in E. coli; label from the status in PepcDB or PDB records", "values": [
      {"sequence": "MKISAVVVTFNRKKLLLECLNALRNQTYPLDAIFIIDGPSTDGTPEALLECGYIKELPPKKGNWSWETKNVIYSPINNKPIKVYYVRLYKDVGGSGGFYEGVKRAYEEGYNWIWLMDDDAEPREDALEKLIRYMNLPGVIALAPTVIRPTGEISKPHRGILCFKKIFPMIQIPLDESKYKSNQPVQIDFVSFVGPLIKRDAIKIVGFPKKEFFIHHDDVEYSIRLRTVGKIYLIPDSVIIHKENIKKTSLIKKRFLGKTIYRIPYNKLWKTYYGTRNLTYLGRIYSKSKFKFYFKLLKRWAVSVGAIILFDDHKIKRIQFITSAYLDGLRGKFDNEKPKRILYGGKKELEHHHHHH", "soluble on expression in E. coli": "soluble"},
      {"sequence": "MKITFLGAAKTVTGSCFFVETASTKFLVDCGMFQGYSKNNALNEEEFPFNVEELDYIFLTHAHIDHSGRIPRIYIKGFRGQIIATKATVELCAIMLPDSGHIQEYENEWTNRKRLRAGKPPVEPLYTYQDAVNCLELFRKVSYDEVIKINDEIRVRFRDAGHILGSAIIEMWINERGEEIKIVFSGDLGNKDIPILRDPSIIESADYLVIESTYGNRLHNERVDKAEYFLNLINSTIEKGGNVIIPSFAAGRTQELIYELNKKKEVYDEKLKMLFATPVYIDSPMAISATEVFRNNLDCYDEEAREYIENGDNPLDFPGLQFTRTAEESKALNERKESSIIIAASGMCEAGRIRHHLKHNLWRKDSTIIFVGYQAEGTLGRRLLDGAKKVRLFGEEISVEARIEMIEGFSGHADKEGLLKWIERFNRKPKKIFIVHGEEDAMIEFSEEINRRFNIETVIPSRGESFILNAHNVIAIDEKVRPDNSFRILQVVEKLENIKEEVEELSYILKSDLKQDKTDLELDELMAKLKNIEKSILEALK", "soluble on expression in E. coli": "not soluble"},
      {"sequence": "MKIVAVTACPTGIAHTYMAADALTKAAPKYNVQIKVETQGAMGIENPLTPYDLSHADKVLIVSDIDIEQPARFEGMKVVKLSIEEVLLNVDKVFLVHCR", "soluble on expression in E. coli": "not soluble"},
      {"sequence": "MKIVWYGHACFLVKTKGVSILIDPYPDVDEDRMEKVDYILITHEHMDHYGKTPLIAKLNDAEVIGPKTVYLMAISDGLTKVREVEADQEFQLGDVTVKTFYTEHPTSQYPLGYLILGEKRVAHLGDTYYSPGFRELRGQVDILLVPIGGRSTASEREAVDIIDIIRPRIVVPMHYGTYGSTGNVESFKRELQRRRVWVLVKDLKPYEGFEV", "soluble on expression in E. coli": "soluble"},
      {"sequence": "MKIWSSEHVFGHPWDTVIKAAMRKYPNPMNPCVVGVDVLERSVDGCGRLHSLRLLSTEWGLPGLVRAILGANRTLTYIKERSVVDPAARKMELCSTNITLTNLVSVNERLVYTPHPENPEKTVLTQEAIITVKGISLGSYLESLMATTISSNAKKGWAAIEWIIEHSESAIS", "soluble on expression in E. coli": "not soluble"},
      {"sequence": "MKKDILEKGAILQRDRETYAIAPHIPGGITDTATLRKLCDVADKYGVKELKLTSAQRIALFGVKEEDLDAIWSDLDQQPGAAIGLCVRSVKICPGTTWCKRGVQDSVSLGLKIDAIYHAMELPNKMKMGISGCMLNCAETMLKDVGVVGTPKGWRIYVGGNAGARPRIGDLLVELGPDEDKVLAVIADLVEWYRSSGSEQRLGRVVEQMGFDAFKTAVLGAKATP", "soluble on expression in E. coli": "not soluble"},
      {"sequence": "MKKEEAKDIPIGGEIAVRQTGVPYGWLYRRTEPGYLLANGIALLECERDSAGRYKGGAGLDGMYLQTGRLYVPVLAGDGNVRAFQEVIPENYLAAAEMSVEGNYNQIDGIINNEPPKPSVLDALNQCREDAAKGRDAPENPPRGQEVER", "soluble on expression in E. coli": "not soluble"},
      {"sequence": "MKKEHQKTLTFEIITPVVMAGTYKDEPELRIPSIKGMLRWWFRFFYASHNQSIDKLREHENEIFGSTEKACQFYMHLKYSQKLTDAYLAMNKRYGRYNNIKRKALEKNDTFRIDFIYSPFFTYKKELNTTLQLLSFLGGIGARWRRGFGSIQLKNGEDYKSFDKLKEKIEKVLKGKGEYHHDGFININNVDIYLVKPKRDNFWIDSLGAMNNLRKKVYKEFKSETNIKAIACKPKGGSRAVSPLIIQIKKFSEGKFYGILIVYNEWDKYEEFKNFINNNSELSFEQLLKSKPRKI", "soluble on expression in E. coli": "soluble"},
      {"sequence": "MKKEKLRTENISFQYPGAATYALKDVSFSLFEGEWVSVIGQNGSGKSTLAKLLNGLFLPEAGTITVNDTMILSEETVWDVRKQIGMVFQNPDNQFVGTTVQDDVVFGLENIGMPREQMVERLNQALRLVRMEDFLNDEPHSLSGGQKQRVAIAGVLALQPSILILDEATSMLDPQGRREVVETVRQLVNEKGITVLSITHDLEEAAQSDRVIILNKGEILEEGTPEQIFKSSHMLQEIGLDVPFSVKIAELLKRNEILLQNTHLTMESLVNELWRLHSKK", "soluble on expression in E. coli": "not soluble"},
      {"sequence": "MKKFFLFLVLPIFLFASPLKAVFDCAVGDLDWISLRLSLIKKTAEQLMEEGKSYRFVITIHSHCIKVVDADLKKFPESERRKIELIQSQLKTLKEMYSVDVKACQIAMNRGKIKKVPPFVETVPNSWITLIELQNKGFAFVPF", "soluble on expression in E. coli": "not soluble"},
      {"sequence": "MKKICMKNGMKIIYEYRESDITSFCVAFNAGAEREGKKERGLAHVVEHCIFKGTKKRSEAQINSEFDEIFGFNNAMTNFPYVIYYGTTLSKDFEKGFELYSDIIVNPTFSEEGFEEEKSIICEELTEWKDDKQQFCEDELLKNSFSNIRLKECIIGNEKNIKDFSIDELRKFYKKYYTSDNCVIGIVTSLKEEEVTDIINNYMTLSKREKPSLFDYEYEKNTSGIFTSKMDVKGAVIQYLFPIYKLKDDEIKALRAFNVIFGEGTSSMLYDKIRTKYGLAYDIYSKINNDGGIKLFYIGLGTASENFDKSIEFVNDTICEAKNLKGQFSSDKLLKIEKTMSLKRSLKLERSIQLAKELATYELMYGKAENVYDEVKDINLLNEDYIIEVVRSVLVTPSIQVVKPNK", "soluble on expression in E. coli": "not soluble"},
      {"sequence": "MKKIGIIGAGGIARAHATALSTIKNAELVGVYDINQQNAESFVKTFGGKSFENVDELIDASEGLIVASPNFCHKEHALQALGKHKHVLCEKPMAISLEEASIMKDTAERLSVRASMGFNYRYLSYVNILKSLIINNELGNILSIKVHFKKNSALRRKKFTWRDDANSKKTSGSLGDLGIHLIDMVWYLFESDFITESVRAKMNTNVKTKEDKQVLVDDYAEIYGQLRNKVFVNIITSKCSVPEDCGFSIEVVGHKKEFKYHTGNPHVYKLIDGLNVVDCPVPQSLLNDPPNEFYGWADSFRSELINWIASTQNDWVEIPSFSDGFRSQEVLEMFFEKDSNSQPMSVSAVNLEHHHHHH", "soluble on expression in E. coli": "not soluble"},
      {"sequence": "MKKIIGLVGTNSEQSTNRQLLQFMQHYFAQEADIELVEIVDFPMFNKPEDKVLPEIVKTVAEKIEAADGVIISTPEYDHAVPASLMNALSWLSYGIFPFVDKPVMITGASYGTLGSSRAQAHLRQILDAPELKARIMPSSEFLLAHSLQAFDENNALKDSEQIDKLAGLFADFCVFIEITEQLKHAHAQNKKEAENFSWETI", "soluble on expression in E. coli": "not soluble"},
      {"sequence": "MKKIPQISDAELEVMKVIWKHSSINTNEVIKELSKTSTWSPKTIQTMLLRLIKKGALNHHKEGRVFVYTPNIDESDYIEVKS", "soluble on expression in E. coli": "soluble"},
      {"sequence": "MKKLAAIISATLLFASSAAVAEVYVGGKVGKSWLDDACLAGQSCEDDDQVVGAFLGYQANKWLSLEAGYDYLGKFTAAGLNDEKVQAVTLAPKLSIPLTEGIALYGKVGGAYVDYGSKDDYSYLGAAGLEFNTNHNVTMRLEYQNLTDINNDIVRARAETATLGIAYKFGGSEEPAPVVEQRPAEPAPVAAPVEKVAVTKTFTFQHLDSSTFATASAELKPATVQKLDKIVGYLNQYPQAKVEVVGHTDSTGSEAYNQKLSERRAQAVAKALEAQGIDASRISAKGLGESSPIASNATAEGREKNRRVELVIPEFQYQVTE", "soluble on expression in E. coli": "not soluble"},
      {"sequence": "MKKLAIVIPAYKVDFFETVLFSLAQQTCKDFTVYIGEDCSRDDFKSLIEQYSKQLDIVYRRFEVNFGGHDLVAQWNRCIQLTQNEPWLWLFSDDDIMGPRCVEYFFNTIAIDNGAFDIYHFDVKIVDCENQIVRIPTVYPSVIDSETFYRRKASARLDSFVVEYIFLRDIYNCTGGFQHFDLAWGSDIATWVKIGADKGIKTISGDYVYWRKSKKNITPNMDNKMVLRKLTADIEFTHWINEFFHKSSVYRFTKYAFFRLVVHYSQAISKSQIRLLLDKAVGKNIISFNDAFIINWTYRFIQLAKRVKDVLYFLEHHHHHH", "soluble on expression in E. coli": "soluble"},
      {"sequence": "MKKLLFFTLLLFGVLSVRSLADGCNAQVCMCPNGGYVTTGQYCSTSSGESWIITPIIGTVAIDPATGKWASISNTKDRKEAKNDVLERCGSDCKVFMVDSKRCVGVAYSKSDKIIGSDSATDNFGGIGYNTRVERSNEKALKKCEKNGGKDCKIIANVCAVEGTTKY", "soluble on expression in E. coli": "not soluble"},
      {"sequence": "MKKLTFEIRSPAHQQNAIHAVQQILPDPTKPIVVTIQERNRSLDQNRKLWACLGDVSRQVEWHGRWLDAESWKCVFTAALKQQDVVPNLAGNGFVVIGQSTSRMRVGEFAELLELIQAFGTERGVKWSDEARLALEWKARWGDRAA", "soluble on expression in E. coli": "soluble"},
      {"sequence": "MKKMGGKIFAVRVTQGQEENTARLIYSKVKTYNLPIYAILAPSKVKGYIFIEAPEKSVVDEAIRGIRHARGVLPGEIPFSEIEHFLEEKPAVSGLEPGDIVELISGPFKGEKAKVVRVDESKDEIVVELIGAIVPIPVTVRGEYVRLISKRQKEE", "soluble on expression in E. coli": "soluble"},
      {"sequence": "MKKPIHSHRAATLYHFAFCLHNLRRSPNSPFTVRNRDEQKDEKPYENKGKINKFFLDLTYFQLPYPVSERAPLRLRAKIETREKINFKIRASSSPAVLVNFPFPRHSLLVSLSPAHETNNAVDGEALHPRAQRA", "soluble on expression in E. coli": "not soluble"},
      {"sequence": "MKKQLCMIALVGATAFGTTGTSWSLDGPPPPEPPPMGKGQEHFLERMASVLKLTDAQQAQIEALISTDAEQNAPLHRQLAENERALREATTAASLDEATVRALAATKGNLMTEMIVSRAKLRNAINAILTAEQRELADRLDPLKYGPPRPRPDRPGMELEHHHHHH", "soluble on expression in E. coli": "soluble"},
      {"sequence": "MKKQLDQLTAYTPGLSPESLKKQYGIRGELHKLASNENVYGPSPKVKTAIQSHLDELYYYPESGSPKLREAISQQLNVDASRILFGAGLDEVILMISRAVLSPGDKIITSESTFGQYYHNAIVESADVIQVPLKDGGFDLDGMLQQIDNKTSLIWLCNPNNPTGTYFSHDELFNFLKRVPSDIPVLIDEAYVEFVTADDFPDTLKLQEDFDNAFLLRTFSKAYGLAGLRVGYVIASEDAIEKWNIIRPPFNVTRISEYAAIAALEDQEYLKEVTQKNSFERDKFYQIPQSQHFLPSQANFVFVKTSRSQALYDALLNVGCITRLFPNGVRITIGLPEQNNKMIEVLKHFEY", "soluble on expression in E. coli": "not soluble"},
      {"sequence": "MKKQLLIVDGYNMIGAWPELVQLKKQERLEDARELLLSRLSNYAKYEGLEIIVVFDAQLVPGIQQTYKKYLLTVVFTKEDETADSYIERLAGEKNDRLTQVTVATSDLAEQWVVFSQGALRTSANELYKAVQKTEKTIAIHATDIHFQQFRRNSPWNVEQLSKLSEKLEELSQKKD", "soluble on expression in E. coli": "not soluble"},
      {"sequence": "MKKRQSCRSFDYSKPVSKEDLISILEAGRLSPSACNSQPYEVFVAQGEKAKIIADAKMGSFNKFIDDCNTFLVIAEDNYSLPAKIGSLIKKVDFKAIDIGILTANLVNAASALNLETCILGVFDEKRIQKLIERKKRIRLVIALGYPKEGYPLREKTRKDFDDNMHFLA", "soluble on expression in E. coli": "not soluble"},
      {"sequence": "MKKRYQTLNEHYRQLFGAKMFKVPIDAGFDCPNRDGTVAHGGCTFCTVSGSGDAIVAPDAPIKEQFYKEIDFMHRKWPDVNRYLVYFQNFTNTHDTVDVIRDRYEQAINEPGVVGINIGTRPDCLPDDTIAYLAELSERMHVTVELGLQTTYEETSRLINRAHSYDLYKETVRRLRHYPNINIVSHLINGLPKETHDMMLENVRRCVTDNDIQGIKLHLLHLMTNTRMQRDYHEGRLKLLSQKDYVSIICDQLEIIPKHIVIHRITGDAPRDMLIGPMWSLNKWEVLNAIDKEMERRGSFQGCKVD", "soluble on expression in E. coli": "not soluble"},
      {"sequence": "MKKTLPKTEAPSSVGNGSDSPIEFDAIIRQVPDMDAAYVEIPFDVKTVYGKGRVRVNATFDGYPYTGYIVRMGLPCHILGLRQDIRRAIGKQPGDSVYVTLLPL", "soluble on expression in E. coli": "soluble"}
    ]}
  ]
}
